The RNAGym collection of RNA variant scans (doi:10.7554/elife.80360)

B1: HDV Ribozyme (parent)
chain: GGCCGGCAUGGUCCCAGCCUCCUCGCUGGCGCCGGCUGGGCAACAUUCCGAGGGGACCGUCCCCUCGGUAAUGGCGAAUGGGACCCA

Variants of: B1
Assay: self-cleavage, relative activity (ratio to wild type); higher = more cleavage; co-transcriptional

Variant	self-cleavage
GGCCGACAUGGUCCCGGCCUCCUCGCUGGCGCCGGCUGGGCAACAUUCCGAGGGGACCGUCCCCUCGGUAAUGGCGAAUGGGACCCA [G6A A16G]	0.573
GGCCUGCAUGGUCCCAGCCUCCUCGCUGGCGCCGGCUGGGCAACAUUCCGAGGGGACCGUCCCCUCUGUAAUGGCGAAUGGGACCCA [G5U G67U]	0.364
GGCCUGCAUGGUCCCAGCCUCCUCGCUGGCGCCGGCUGGGCAACAUUCCGAGGGGACCGUCCCCUCAGUAAUGGCGAAUGGGACCCA [G5U G67A]	0.32
GGCCUGCAUGGUCCCAGCCUCCUCGCUGGCGCCGGCUGGGCAACAUUCCGAGGGGACCGUCCCCUCCGUAAUGGCGAAUGGGACCCA [G5U G67C]	0.582
GGCCUGCAUGGUCCCAGCCUCCUCGCUGGCGCCGGCUGGGCAACAGUCCGAGGGGACCGUCCCCUCGGUAAUGGCGAAUGGGACCCA [G5U U46G]	0
GGCCUGCAUGGUCCCAGCCUCCUCGCUGGCGCCGGCUGGGCAACACUCCGAGGGGACCGUCCCCUCGGUAAUGGCGAAUGGGACCCA [G5U U46C]	0
GGCCUGCAUGGUCCCAGCCGCCUCGCUGGCGCCGGCUGGGCAACAUUCCGAGGGGACCGUCCCCUCGGUAAUGGCGAAUGGGACCCA [G5U U20G]	0.111
GGCCUGCAUGGUCCCAGCCUCCUCGCUGGCGCCGGCUGGGCAACAUUCCGAGGGGACCGUCCCCUCGGUAAUGGCGAAUCGGACCCA [G5U G80C]	0.0811
GGCCGACAUGGUCCCAGCCUCCUCGCUGGCGCCGGCUGGGCAACAUUCCGAGGGGACCGUCCCCUCGGUAGUGGCGAAUGGGACCCA [G6A A71G]	0.762
GGCCGACAUGGUCCCAGCCUCCUCGCUGGCGCCGGCUGGGCAACAUUCCGAGGGGACCGUCCCCUCGGUACUGGCGAAUGGGACCCA [G6A A71C]	0.269
GGCCGACAUGGUCCCAGCCUCCUCGCUGGCGCCGGCUGGGCAACAUUCCGAGGGGACCGUCCCCUCGGUAUUGGCGAAUGGGACCCA [G6A A71U]	0.554
GGCCGACAUGGUCCCAGCCUCCUCGCUGGCGCCGGCUGGGCAACAUUCCGAGGGGACCGUCCCCUCGGUCAUGGCGAAUGGGACCCA [G6A A70C]	0.527
GGCCGACAUGGUCCCAGCCUCCUCGCUGGCGCCGGCUGGGCAACAUUCCGAGGGGACCGUCCCCUCGGUUAUGGCGAAUGGGACCCA [G6A A70U]	0.399
GGCCUGCAUGGUCCCAGCCUCCUCGCUGGCGCCGGCGGGGCAACAUUCCGAGGGGACCGUCCCCUCGGUAAUGGCGAAUGGGACCCA [G5U U37G]	0.0755
GGCCUGCAUGGUCCCAGCCUCCUCGCUGGCGCCGGCCGGGCAACAUUCCGAGGGGACCGUCCCCUCGGUAAUGGCGAAUGGGACCCA [G5U U37C]	0.519
GGCCUGCAUGGUCCCAGCCUCCUCGCUGGCGCCGGCUGGGCAACAUUCCGAGGGGACCGUCCCCUCGGUAAUGGCGAAUGGCACCCA [G5U G82C]	0
GGCCUGCAUGGUCCCAGCCUCCUCGCUGGCGCCGGCUGGGCAACAUGCCGAGGGGACCGUCCCCUCGGUAAUGGCGAAUGGGACCCA [G5U U47G]	0.222
GGCCGACAUGGUCCCAGCGUCCUCGCUGGCGCCGGCUGGGCAACAUUCCGAGGGGACCGUCCCCUCGGUAAUGGCGAAUGGGACCCA [G6A C19G]	0
GGCCUGCAUGGUCCCAGCCUCCUCGCUGGCGCCGGCUGGGCAACAUUCCGAGGGGACCGUCCCCUCGGCAAUGGCGAAUGGGACCCA [G5U U69C]	0.277
GGCCUGCAUGGUCCCAGCCUCCUCGCUGGCGCCGGCUGGGCAACAUUCCGAGGGGACCGUCCCCUCGGAAAUGGCGAAUGGGACCCA [G5U U69A]	0.262
GGCCGACAUGGUCCCAGCCUCCUCGCUGGCGCCGGCUGGGCAACAUUCCGAGGGGCCCGUCCCCUCGGUAAUGGCGAAUGGGACCCA [G6A A56C]	0.571
GGCCGACAUGGUCCCAGCCUCCUCGCUGGCGCCGGCUGGGCAACAUUCCGAGGGGGCCGUCCCCUCGGUAAUGGCGAAUGGGACCCA [G6A A56G]	0.848

Variant	self-cleavage
GGCCGACAUGGUCCCAGCCUCCUCGCUGGCGCCGGCUGGGCAACAUUCCGAGGGGUCCGUCCCCUCGGUAAUGGCGAAUGGGACCCA [G6A A56U]	0.601
GGCCUGCAUGGUCCCAGCCUCCUCGCUGGCGCCGGCUGGGCAACAUUCCGAGGGGACCGGCCCCUCGGUAAUGGCGAAUGGGACCCA [G5U U60G]	0.151
GGCCUGCAUGGUCCCAGCCUCCUCGCCGGCGCCGGCUGGGCAACAUUCCGAGGGGACCGUCCCCUCGGUAAUGGCGAAUGGGACCCA [G5U U27C]	0.0978
GGCCGACAUGGUCCCAGCCUCCUCGCUGGCGCCGGCUGGGCAACAUUCCGCGGGGACCGUCCCCUCGGUAAUGGCGAAUGGGACCCA [G6A A51C]	0.522
GGCCGACAUGGUCCCAGCCUCCUCGCUGGCGCCGGCUGGGCAACAUUCCGGGGGGACCGUCCCCUCGGUAAUGGCGAAUGGGACCCA [G6A A51G]	0.517
GGCCUGCAUGGUCCCAGCCUCCUCGCUGGCGCCGGCUGGGCAACAUUCCGAGGGGACCGUCCCCUCGGUAAUGGCUAAUGGGACCCA [G5U G76U]	0.529
GGCCGACAUGGUCCCAGCCUCCUCGCUGGCGCCGGCUGGGCAACAUUCCGAGGGGACCGUCCCCUCGGUAAUGGCGAUUGGGACCCA [G6A A78U]	0.0297
GGCCUGCAUGGUCCCAGCCUCCACGCUGGCGCCGGCUGGGCAACAUUCCGAGGGGACCGUCCCCUCGGUAAUGGCGAAUGGGACCCA [G5U U23A]	0.578
GGCCUGCAUGGUCCCAGCCUCCGCGCUGGCGCCGGCUGGGCAACAUUCCGAGGGGACCGUCCCCUCGGUAAUGGCGAAUGGGACCCA [G5U U23G]	0
GGCCUGCAUGGUCCCAGCCUCCUCGCUGGCGCCGGCUGGGCAACAUUCCGAGGGGACCGUCCCCGCGGUAAUGGCGAAUGGGACCCA [G5U U65G]	0.475
GGCCUGCAUGGUCCCAGCCUCCUCGCUGGCGCCGGCUGGGCAACAUUCCGAGGGGACCGUCCCCUCGGUAAUGGCGAAUGAGACCCA [G5U G81A]	0.147
GGCCUGCAUGGUCCCAGCCUCCUCGCUGGCGCCGGCUGGGCAACAUUCCGAGGGGACCGUCCCCUCGGUAAUGGCGAAUGCGACCCA [G5U G81C]	0
GGCCGACAUGGUCCCAGCCUCCUCGCUGGCGCCGGCUGGGCAACAUUCCGAGGGGACCGUCCCCUCGGUAAUGGCGAAUGGGACCCC [G6A A87C]	0.635
GGCCUGCAUGGUCCCAGCCUCCUCGCUGGCGCCGGCUGGGCAACAUUCCGAGGGGACCGUCCCCUCGGUAAUGGCGAACGGGACCCA [G5U U79C]	0.123
GGCCUGCAUGGUCCCAGCCUCCUCGCUGGCGCCGGCUGGGCAACAUUCCGAGGGGACCGUCCCCUCGGUAAUGGCGAAAGGGACCCA [G5U U79A]	0.104
GGCCGACAUGGUCCCAGCCUCCUCGCUGGCGCCGGCUGGGCAACAUUCCGAGGGGACCGUCCCCUCGGUAAUGGCGUAUGGGACCCA [G6A A77U]	0.18
GGCCGACAUGGUCCCAGCCUCCUCGCUGGCGCCGGCUGGGCAACAUUCCGAGGGGACCGUCCCCUCGGUAAUGGCGGAUGGGACCCA [G6A A77G]	0.277
GGCCUGCAUGGUCCCAGCCUCCUCGCUGGCGCCGGCUGGGCAACAUUCCGAGGGGACCGUCCCCUCGAUAAUGGCGAAUGGGACCCA [G5U G68A]	0.697
GGCCUGCAUGGUCCCAGCCUCCUCGCUGGCGCCGGCUGGGCAACAUUCCGAGGGGACCGUCCCCUCGUUAAUGGCGAAUGGGACCCA [G5U G68U]	0.268
GGCCUGCAAGGUCCCAGCCUCCUCGCUGGCGCCGGCUGGGCAACAUUCCGAGGGGACCGUCCCCUCGGUAAUGGCGAAUGGGACCCA [G5U U9A]	0.578
GGCCGACAUGGUCCCAGCCUUCUCGCUGGCGCCGGCUGGGCAACAUUCCGAGGGGACCGUCCCCUCGGUAAUGGCGAAUGGGACCCA [G6A C21U]	0.0665
GGCCGACAUGGUCCCAGCCUGCUCGCUGGCGCCGGCUGGGCAACAUUCCGAGGGGACCGUCCCCUCGGUAAUGGCGAAUGGGACCCA [G6A C21G]	0.203

Variant	self-cleavage
GGCCGACAUGGUCCCAGCCUCCUCGCUGGCGCCGGCUGGGCAUCAUUCCGAGGGGACCGUCCCCUCGGUAAUGGCGAAUGGGACCCA [G6A A43U]	0.116
GGCCGACAUGGUCCCAGCCUCCUAGCUGGCGCCGGCUGGGCAACAUUCCGAGGGGACCGUCCCCUCGGUAAUGGCGAAUGGGACCCA [G6A C24A]	0.283
GGCCGACAUGGUCCCAGCCUCCUUGCUGGCGCCGGCUGGGCAACAUUCCGAGGGGACCGUCCCCUCGGUAAUGGCGAAUGGGACCCA [G6A C24U]	0.308
GGCCGACAUGGUCCCAGCCUCCUCGCUGGCGCCGGCUGGGCAACAUUCCGAGGGGACCGUCCCCUCGGUAAUGGCGAAUGGGUCCCA [G6A A83U]	0.324
GGCCGACAUGGUCCUAGCCUCCUCGCUGGCGCCGGCUGGGCAACAUUCCGAGGGGACCGUCCCCUCGGUAAUGGCGAAUGGGACCCA [G6A C15U]	0.431
GGCCGACAUGGUCCAAGCCUCCUCGCUGGCGCCGGCUGGGCAACAUUCCGAGGGGACCGUCCCCUCGGUAAUGGCGAAUGGGACCCA [G6A C15A]	0.375
GGCCGACAUGGUCGCAGCCUCCUCGCUGGCGCCGGCUGGGCAACAUUCCGAGGGGACCGUCCCCUCGGUAAUGGCGAAUGGGACCCA [G6A C14G]	0.287
GGCCGACAUGGUCACAGCCUCCUCGCUGGCGCCGGCUGGGCAACAUUCCGAGGGGACCGUCCCCUCGGUAAUGGCGAAUGGGACCCA [G6A C14A]	0.237
GGCCGACAUGGUCCCAGCCUCAUCGCUGGCGCCGGCUGGGCAACAUUCCGAGGGGACCGUCCCCUCGGUAAUGGCGAAUGGGACCCA [G6A C22A]	0.208
GGCCGACAUGGUCCCAGCCUCUUCGCUGGCGCCGGCUGGGCAACAUUCCGAGGGGACCGUCCCCUCGGUAAUGGCGAAUGGGACCCA [G6A C22U]	0.4
GGCCUGCAUGGUCCCAGCCUCCUCGCUGGCGCCGGCUGGGCAACAUUCCGAGGGGACCGUCCCCUCGGUAAUGUCGAAUGGGACCCA [G5U G74U]	0
GGCCGACCUGGUCCCAGCCUCCUCGCUGGCGCCGGCUGGGCAACAUUCCGAGGGGACCGUCCCCUCGGUAAUGGCGAAUGGGACCCA [G6A A8C]	0.323
GGCCGACAUGGUCCCAGCCUCCUCGCUGGAGCCGGCUGGGCAACAUUCCGAGGGGACCGUCCCCUCGGUAAUGGCGAAUGGGACCCA [G6A C30A]	0.0421
GGCCGACAUGGUACCAGCCUCCUCGCUGGCGCCGGCUGGGCAACAUUCCGAGGGGACCGUCCCCUCGGUAAUGGCGAAUGGGACCCA [G6A C13A]	0.185
GGCCGACAUGGUCCCAGCCUCCUCGCUGGCGCCGGCUGGGCCACAUUCCGAGGGGACCGUCCCCUCGGUAAUGGCGAAUGGGACCCA [G6A A42C]	0.0831
GGCCGACAUGGUCCCAGCCUCCUCGCUGGCGCCGGCUGGGCUACAUUCCGAGGGGACCGUCCCCUCGGUAAUGGCGAAUGGGACCCA [G6A A42U]	0.283
GGCCGACAUGGUCCCAGCCUCCUCGGUGGCGCCGGCUGGGCAACAUUCCGAGGGGACCGUCCCCUCGGUAAUGGCGAAUGGGACCCA [G6A C26G]	0.856
GGCCGACAUGGUCCCAGUCUCCUCGCUGGCGCCGGCUGGGCAACAUUCCGAGGGGACCGUCCCCUCGGUAAUGGCGAAUGGGACCCA [G6A C18U]	0.148
GGCCGACAUGGUCCCAGACUCCUCGCUGGCGCCGGCUGGGCAACAUUCCGAGGGGACCGUCCCCUCGGUAAUGGCGAAUGGGACCCA [G6A C18A]	0
GGCCGACAUGGUCCCAGGCUCCUCGCUGGCGCCGGCUGGGCAACAUUCCGAGGGGACCGUCCCCUCGGUAAUGGCGAAUGGGACCCA [G6A C18G]	0.115
